The text below walks through data of the supplement of paper PMC7877785.

± gives the uncertainty stated by the source.

The data set in a line: self-splicing fitness, log relative to wild type (ln ratio); higher = more splicing; Tetrahymena group I intron in knt gene, E. coli kanamycin selection, DiMSum; sequences stand for … in CUCUCU…GGAGGGAAAAGUUAUCAGGCAUGCACCUGGUAGCUAGUCUUUAAACCAAUAGAUUGCAUCGGUUUAAAAGGCAAGACCGUCAAAUUGCGGGAAAGGGGUCAACAGCCGUUCAGUACCAAGUCUCAGGGGAAACUUUGAGAUGGCCUUGCAAAGGGUAUGGUAAUAAGCUGACGGACAUGGUCCUAACCACGCAGCCAAGUCCUAAGUCAACAGAUCUUCUGUUGAUAUGGAUGCAGUUCACAGACUAAAUGUCGGUCGGGGAAGAUGUAUUCUUCUCAUAAGAUAUAGUCGGACCUCUCCUUAAUGGGAGCUAGCGGAUGAAGUGAUGCAACACUGGAGCCGCUGGGAACUAAUUUGUAUGCGAAAGUAUAUUGAUUAGUUUUGGAGUACUCGUGGUCG
In a few lines: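 Fitness was computed with DiMSum as the error-weighted combination of replicate fold changes, kanamycin versus none, each normalised to wild type. The library randomised all eight intron nucleotides of the P1ex region, with the intron placed in the knt kanamycin-resistance gene on pET-22b(+) in E. coli BL21(DE3). Six replicate transformations were grown overnight at 37°C or 30°C on LB agar with or without 25 μg/mL kanamycin, plus 100 μg/mL carbenicillin, 50 μM IPTG and 0.2% rhamnose. Pooled colonies were amplicon-sequenced on an Illumina HiSeq 2500.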

ACCCAGCAAUAUUACGGUCG: the “self-splicing fitness (ln)” value (30 °C) is -3.85 ± 0.14 and the “self-splicing fitness (ln)” value (37 °C) was -1.75 ± 0.095.

For the sequence ACCCAGCAAUAUUACGGUCU, the “self-splicing fitness (ln)” value (30 °C) was -1.12 ± 0.038 and the “self-splicing fitness (ln)” value (37 °C) is -0.171 ± 0.052.

For the sequence ACCCAGCAAUAUUACGGUUA, the “self-splicing fitness (ln)” value (30 °C) was -0.324 ± 0.059 and the “self-splicing fitness (ln)” value (37 °C) is -0.361 ± 0.06.

Turning to ACCCAGCAAUAUUACGUGCG, the “self-splicing fitness (ln)” value (30 °C) was -3.12 ± 0.13 and the “self-splicing fitness (ln)” value (37 °C) is -1.85 ± 0.098.

Take ACCCAGCAAUAUUACGUGUA: the “self-splicing fitness (ln)” value was -1.38 ± 0.06 (30 °C) and -0.689 ± 0.064 (37 °C).

Consider ACCCAGCAAUAUUACGUUAU, for which the “self-splicing fitness (ln)” value by setting is: (30 °C) -1.91 ± 0.064; (37 °C) -1.04 ± 0.081.

For the sequence ACCCAGCAAUAUUACGUUUU, the “self-splicing fitness (ln)” value by setting is: (30 °C) -1.41 ± 0.048; (37 °C) -0.336 ± 0.066.

Take ACCGAGCAAUAUUACGAAAC: the “self-splicing fitness (ln)” value (37 °C) is -2.95 ± 0.37.

Consider ACCGAGCAAUAUUACGACAA, for which the “self-splicing fitness (ln)” value is, setting by setting: (30 °C) -2.37 ± 0.22; (37 °C) -2.4 ± 0.26.

As to ACCGAGCAAUAUUACGACGC, the “self-splicing fitness (ln)” value (30 °C) was -0.285 ± 0.089 and the “self-splicing fitness (ln)” value (37 °C) is -0.16 ± 0.11.

As to ACCGAGCAAUAUUACGAGCA, the “self-splicing fitness (ln)” value reads like this: (30 °C) -2.63 ± 0.13; (37 °C) -1.99 ± 0.13.

For the sequence ACCGAGCAAUAUUACGAUCC, the “self-splicing fitness (ln)” value runs as follows: (30 °C) -2.86 ± 0.34; (37 °C) -1.94 ± 0.29.

Regarding ACCGAGCAAUAUUACGAUCU, the “self-splicing fitness (ln)” value (30 °C) was -1.66 ± 0.14 and the “self-splicing fitness (ln)” value (37 °C) is -0.405 ± 0.15.

ACCGAGCAAUAUUACGCAGG: the “self-splicing fitness (ln)” value was -4.2 ± 0.47 (30 °C) and -2.65 ± 0.41 (37 °C).

Turning to ACCGAGCAAUAUUACGCGGG, the “self-splicing fitness (ln)” value was -3.85 ± 0.18 (30 °C) and -2.89 ± 0.19 (37 °C).

Turning to ACCGAGCAAUAUUACGCUAA, the “self-splicing fitness (ln)” value is, setting by setting: (30 °C) -3.28 ± 0.32; (37 °C) -2.05 ± 0.28.

For ACCGAGCAAUAUUACGGAAA, the “self-splicing fitness (ln)” value (30 °C) is -2.92 ± 0.12 and the “self-splicing fitness (ln)” value (37 °C) was -2.5 ± 0.12.

As to ACCGAGCAAUAUUACGGAUU, the “self-splicing fitness (ln)” value (30 °C) was -3.51 ± 0.16 and the “self-splicing fitness (ln)” value (37 °C) is -1.94 ± 0.16.

ACCGAGCAAUAUUACGGCAG: where the note is “30 °C”, the “self-splicing fitness (ln)” value is -4.4 ± 0.39.

As to ACCGAGCAAUAUUACGGGCC, the “self-splicing fitness (ln)” value is, setting by setting: (30 °C) -3.39 ± 0.17; (37 °C) -2.09 ± 0.15.

Consider ACCGAGCAAUAUUACGGGGC, for which the “self-splicing fitness (ln)” value was -3.64 ± 0.2 (30 °C) and -2.47 ± 0.2 (37 °C).

ACCGAGCAAUAUUACGGGUC: the “self-splicing fitness (ln)” value by setting is: (30 °C) -4.23 ± 0.14; (37 °C) -3.06 ± 0.14.

Regarding ACCGAGCAAUAUUACGGGUU, the “self-splicing fitness (ln)” value is, setting by setting: (30 °C) -2.85 ± 0.12; (37 °C) -2.54 ± 0.18.

For ACCGAGCAAUAUUACGGUAG, the “self-splicing fitness (ln)” value is -3.75 ± 0.23 (30 °C) and -2.73 ± 0.24 (37 °C).

With ACCGAGCAAUAUUACGUAAA, the “self-splicing fitness (ln)” value is -4.22 ± 0.29 (30 °C) and -1.66 ± 0.19 (37 °C).

For ACCGAGCAAUAUUACGUAAG, the “self-splicing fitness (ln)” value runs as follows: (30 °C) -2.67 ± 0.13; (37 °C) -2.13 ± 0.16.

Turning to ACCGAGCAAUAUUACGUAUG, the “self-splicing fitness (ln)” value is -3.56 ± 0.15 (30 °C) and -2.28 ± 0.15 (37 °C).

For ACCGAGCAAUAUUACGUCUG, the “self-splicing fitness (ln)” value by setting is: (30 °C) -2.37 ± 0.095; (37 °C) -2.28 ± 0.14.

With ACCGAGCAAUAUUACGUGUA, the “self-splicing fitness (ln)” value (30 °C) was -2.2 ± 0.13 and the “self-splicing fitness (ln)” value (37 °C) was -1.49 ± 0.096.

Regarding ACCGAGCAAUAUUACGUUCG, the “self-splicing fitness (ln)” value (30 °C) was -3.19 ± 0.48 and the “self-splicing fitness (ln)” value (37 °C) was -1.76 ± 0.23.

ACCUAGCAAUAUUACGAACA: the “self-splicing fitness (ln)” value reads like this: (30 °C) -2.24 ± 0.29; (37 °C) 0.383 ± 0.2.

For the sequence ACCUAGCAAUAUUACGAACC, the “self-splicing fitness (ln)” value runs as follows: (30 °C) -1.67 ± 0.16; (37 °C) -1.07 ± 0.19.

In the case of ACCUAGCAAUAUUACGAAUG, the “self-splicing fitness (ln)” value is, setting by setting: (30 °C) -3.04 ± 0.15; (37 °C) -2.3 ± 0.13.

As for ACCUAGCAAUAUUACGACAU, the “self-splicing fitness (ln)” value was -0.784 ± 0.011 (30 °C) and -0.119 ± 0.032 (37 °C).

Consider ACCUAGCAAUAUUACGACUA, for which the “self-splicing fitness (ln)” value by setting is: (30 °C) -2.72 ± 0.21; (37 °C) -1.78 ± 0.23.

With ACCUAGCAAUAUUACGAGAU, the “self-splicing fitness (ln)” value runs as follows: (30 °C) -2.54 ± 0.091; (37 °C) -1.3 ± 0.098.

For ACCUAGCAAUAUUACGAUAA, the “self-splicing fitness (ln)” value is, setting by setting: (30 °C) -2.61 ± 0.27; (37 °C) -2.1 ± 0.23.

As for ACCUAGCAAUAUUACGAUGG, the “self-splicing fitness (ln)” value (30 °C) was -3.01 ± 0.17 and the “self-splicing fitness (ln)” value (37 °C) was -0.981 ± 0.18.
